# Experimental data: US20140308316A1, “ANTIGEN PRESENTING CANCER VACCINE WITH GAMMA INTERFERON” (CALIFORNIA STEM CELL, INC., priority 2011, published 2014)
# B1: interferon-gamma (protein, UniProt P01579 24-161, looked up)
# Interferon gamma: QDPYVKEAENLKKYFNAGHSDVADNGTLFLGILKNWKEESDRKIMQSQIVSFYFKLFKNFKDDQSIQKSVETIKEDMNVKFFNSNKKKRDDFEKLTNYSVTDLNVQRKAIHELIQVMAELSPAAKTGKRKRSQMLFRG
# notes: interferon-gamma (InterMune), type II interferon, used at 1000 IU/mL for 72 hours on tumor cells
# What was measured:
# SK-5-Mel cells [1] = experiment: Autophagy by flow cytometry with Enzo Cyto-ID Autophagy Detection Dye; type: cell-based; conditions: for effect on autophagy in IFN-gamma treated cells: z-VAD 20 uM with 1000 IU/mL IFN-gamma, 72 hours
# Experimental: FIGS. 6A and 6B reveal apoptosis and autophagy induced in response to interferon-gamma. SK-5-Mel cells were incubated with 1000 IU/mL of IFN-gamma for 72 hours after which non-adherent and adherent populations were collected and assayed for apoptosis and autophagy by flow cytometry using 7-AAD and Annexin-V (FIG. 6A). Enzo Cyto-ID Autophagy Detection Dye was used to measure autophagy by flow cytometry by measuring the mean intensity peak shift of dye provided by the manufacturer (FIG. […]). Fold changes in the peak shift in comparison to 5% FBS/RPMI are shown in FIG. 6C with serum-free as positive control for the induction of autophagy.
# SK-5-Mel cells were treated with 1000 IU/mL of IFN-gamma in the presence of 20 uM of the pan-caspase inhibitor z-VAD or its control compound, z-FA for 72 hours. The cells were harvested and assayed for autophagy by flow cytometry as in FIG. 6C.
# (§1) The methodology of the study was as follows. Autologous and model melanoma tumor cell lines were incubated with 1000 IU/mL of IFN-gamma for 72 hours prior to assaying for autophagy, apoptosis and MHC class II expression. Autophagy was detected by immunobloting with antibodies against LC3 II and by flow cytometry with Enzo's CytoID® Autophagy Detection Kit. Apoptosis and MHC class II induction were assayed by flow cytometry using 7-AAD and annexin-V staining and antibodies against MHC class II, respectively.
# (§2) The commercially available melanoma cell lines A375, SK-Mel-5 and SK-Mel-28 were purchased from American Type Culture Collection (Catalogue numbers: CRL-1619, HTB-70, and HTB-72). A375, SK-Mel-5, and SK-Mel-28 were maintained in 5% fetal bovine serum in RPMI-1640 (Invitrogen, catalogue number 11875-085). […]
# (§3) What was investigated was the induction of autophagy, apoptosis and MHC class II molecules after IFN-gamma treatment of melanoma tumor cells in vitro. […] Autophagy was detected by immunobloting with antibodies against LC3 II and by flow cytometry with Enzo's CytoID Autophagy Detection Kit. […]
# melanoma cell lines = experiment: Apoptosis by flow cytometry using 7-AAD and annexin-V; type: cell-based; conditions: pan caspase inhibitor with IFN-gamma
# Experimental: as §1
# Analysis of tumor cell death and changes in major histocompatibility class II expression in response to IFN-gamma were conducted by use of antibodies directed against MHC class II, annexin-V and 7-amino-actinomycin D (7-AAD) and acquired on a Beckton-Dickenson FACS Calibur® flow cytometer.
# What was investigated was the induction of autophagy, apoptosis and MHC class II molecules after IFN-gamma treatment of melanoma tumor cells in vitro. Autologous and model melanoma tumor cell lines were incubated with 1000 IU/mL of IFN-gamma for 72 hours prior to assaying for autophagy, apoptosis and MHC class II expression. Autophagy was detected by immunobloting with antibodies against LC3 II and by flow cytometry with Enzo's CytoID Autophagy Detection Kit. […]
# MHC class I = experiment: Flow cytometry for MHC class I on IFN-gamma treated autologous tumor cells; type: cell-based, human; conditions: 1000 IU/mL IFN-gamma 72 hours, N=65, p=2.8×10^−8
# Experimental: (§4) FIGS. 2A-D show characterization of IFN-gamma treated autologous tumor cells used for loading dendritic cells. Autologous melanoma tumor cells were treated with or without 1000 IU/mL IFN-gamma for 72 hours in 15% FBS/ECS in RPMI, harvested and irradiated with 100 Gy and cryopreserved. Cells were then thawed in AIMV and a sample taken for flow cytometry and for preparation of cell lysates for immunoblotting prior to antigen loading of DCs. An example of four separate autologous melanoma cell lines is shown (FIG. 2A, FIG. 2B and FIG. 2C). Induction major histocompatibility complexes by IFN-gamma treatment of autologous tumor cells (FIG. 2D). Tumor cells were harvested after being treated with or without 1000 IU/mL IFN-gamma for 72 hours and then assayed for MHC class I and class II. Control isotype antibodies were used to identify positive populations. Dark data points indicate median mean fluorescent plus/minus 95% confidence interval, N=65. […]
# MHC class II = experiment: Flow cytometry for MHC class II on IFN-gamma treated autologous tumor cells; type: cell-based, human
# Experimental: as §4
# [2] = test system: melanoma cell lines used in patient-specific dendritic cell therapy; experiment: Immunohistochemistry of tumor associated antigens in melanoma lines with or without IFN-gamma; type: cell-based, human; conditions: 1000 IU/mL IFN-gamma, 72 hours, N=27 samples
# Experimental: Expression of a panel antigens by melanoma lines were determined using immunocytochemical procedure. Ceils were cultured in 8-chamber culture slides (Thermo Fisher, Rochester, N.Y.) in the presence or absence of 1000 IU/mL IFN-gamma. After 72 hours, the cells were washed 3 times with 1× Phosphate Buffered Saline (PBS) and fixed in cold acetone. After blocking endogenous peroxidase, cells were incubated with appropriate primary antibodies against the antigens listed. Immunohistochemistry was performed using biotinylated antimouse or rabbit immunoglobulins. Super Sensitive enzyme-conjugated streptavidin labeling and horse radish peroxidase chromogen, and substrate kits (Biogenex, San Ramon, Calif.). The reactivity of the following anti-human polyclonal or monoclonal antibodies was investigated with isotype matched control antibody: S-100 and HMB-45 (Biogenex, San Ramon, Calif.), Mel-2, Mel-5, Mart-1 (Signet, Dedham, Mass.), Tyrosinase and Mage-1 (Thermo Scientific, Fremont, Calif.), Melan-A, HLA-class I and HLA-class II (Dako Denmark).
# Table I: Change in the expression level of common tumor associated antigens in response to interferon-gamma in melanoma cell lines used patient-specific cell based dendritic cell therapy.
# [3] = test system: autologous melanoma cell lines; experiment: Immunoblot of lysates from melanoma cells incubated with or without IFN-gamma; type: cell-based, human; conditions: IFN-gamma treated vs untreated
# Experimental: FIGS. 2A-D show characterization of IFN-gamma treated autologous tumor cells used for loading dendritic cells. Autologous melanoma tumor cells were treated with or without 1000 IU/mL IFN-gamma for 72 hours in 15% FBS/ECS in RPMI, harvested and irradiated with 100 Gy and cryopreserved. Cells were then thawed in AIMV and a sample taken for flow cytometry and for preparation of cell lysates for immunoblotting prior to antigen loading of DCs. An example of four separate autologous melanoma cell lines is shown (FIG. 2A, FIG. 2B and FIG. 2C). Induction major histocompatibility complexes by IFN-gamma treatment of autologous tumor cells (FIG. 2D). Tumor cells were harvested after being treated with or without 1000 IU/mL IFN-gamma for 72 hours and then assayed for MHC class I and class II. Control isotype antibodies were used to identify positive populations. Dark data points indicate median mean fluorescent plus/minus 95% confidence interval, N=65.
# Cytoplasmic cell lysates were prepared with Mammalian Protein Extraction Reagent (Thermo Scientific, Rockford, Ill.) plus protease inhibitor cocktail (Roche, Indianapolis, Ind.) at 10,000 cells/uL on ice. Approximately 25 uLs/lane of cell lysates were separated on 12.5% tris-glycine gels, transferred to PVDF membrane and probed with antibodies against the following: calreticulin (MBL, Woburn, Mass.), Hsp-60, Hsp-70, Hsp-90 (R&D Systems, Minneapolis, Minn.), HMBG-1 (Cell Signaling, Danvers, Mass.), ICAM-1 (Santa Cruz Biotech, Santa Cruz, Calif.), Mel-4, Mart-1 (Signet, Emeryville, Calif.), tyrosinase (Upstate, Lake Placid, N.Y.) and GADPH (Calbiochem, Darmstadt, Germany).
# Lysates from cells that were incubated in the presence or absence of IFN-gamma were subjected to immunoblotting for a variety of molecules that may be important mediators of immunity (FIG. 1B). In the setting of melanoma cells treated with IFN-gamma, heat shock proteins appear to be differentially regulated but remain largely present in the cell preparations, especially in the case of hsp-70.
# melanoma tumor cells = experiment: Sensitivity of IFN-gamma treated melanoma tumor cells to cytotoxic T lymphocyte activity; type: cell-based
# SK-5-Mel cells [4] = experiment: MHC class II (HLA-DR) expression by flow cytometry with autophagy inhibitor 3-MA; type: cell-based; conditions: 1000 IU/mL IFN-gamma 72 hours; 3-MA 10 uM where present
# Experimental: The cells were then harvested and assayed for apoptosis and MHC class II (HLA-DR) expression by flow cytometry.
# as §1, §2, §3
molecule,measurement,setting,value
carbobenzoxy-valyl-alanyl-aspartyl-[O-methyl]-fluoromethylketone [Z-VAD],effect on autophagy in IFN-gamma treated cells,SK-5-Mel cells [1],does not perturb autophagy
same,effect on autophagy in IFN-gamma treated cells,SK-5-Mel cells [1]; listed as z-VAD,did not affect
same,effect on apoptosis in IFN-gamma treated cells,melanoma cell lines,prevents apoptosis
B1,MHC class I median fold induction (95% C.I.),MHC class I,2.91±1.13 fold
same,"MHC class II mean fluorescence intensity, median induction (95% C.I.)","MHC class II; 1000 IU/mL IFN-gamma 72 hours, N=65, p=0.039",4.23±2.66
same,cases with MHC class II induction greater than two fold,MHC class II; in response to IFN-gamma treatment,70%
same,Change after IFN-gamma treatment: None,[2]; HMB-45,54.5%
same,Change after IFN-gamma treatment: Down,[2]; MAGE-1,81.5%
same,Change after IFN-gamma treatment: None,[2]; MAGE-1,38.5%
same,Change after IFN-gamma treatment: Down,[2]; MART-1,85.2%
same,Change after IFN-gamma treatment: None,[2]; MART-1,14.8%
same,Change after IFN-gamma treatment: Down,[2]; Mel-2,53.8%
same,Change after IFN-gamma treatment: None,[2]; Mel-2,48.2%
same,Change after IFN-gamma treatment: Down,[2]; Mel-5,27.3%
same,Change after IFN-gamma treatment: None,[2]; Mel-5,72.7%
same,Change after IFN-gamma treatment: Down,[2]; Melan-A,70.8%
same,Change after IFN-gamma treatment: None,[2]; Melan-A,29.2%
same,Change after IFN-gamma treatment: Down,[2]; S-100,57.1%
same,Change after IFN-gamma treatment: None,[2]; S-100,42.9%
same,Change after IFN-gamma treatment: Down,[2]; Tyrosinase,80.0%
same,Change after IFN-gamma treatment: None,[2]; Tyrosinase,40.0%
same,ICAM-1 expression,[3],significantly up-regulated
same,calreticulin and high-mobility group box-1 protein expression,[3],up-regulated in some cases
same,"common melanoma antigens (mel-4, Mart-1 and tyrosinase) expression",[3],down regulated
same,sensitivity to cytotoxic T lymphocyte (CTL) activity,melanoma tumor cells,more sensitive
same,MHC class II positive cells,SK-5-Mel cells [4],39.4%
same,"autophagy, fold change","SK-5-Mel cells [1]; 1000 IU/mL IFN-gamma 72 hours, z-VAD 20 uM where present, peak shift vs 5% FBS/RPMI",2.75±0.15 fold change
